Measurements as given in publication PMC11581024 (bioRxiv, 2024).

Biological target: the molecule itself
Assay: SEC-MALS

B1: Treponema denticola ComFB (natural protein)
chain: MIIHNVMEDLVYTEVNKLFDEAEEKKESWLTCSCMQCRVDTMCYVLNRVKPRYIKSGRGLAHFLKFEKTEKVQIMADITSLVIEGMHRVLSTKRPHDHEPIFETENTPVFNFPAITGNILNGSNFRPMEDATISLKMNGELVSQMSILWDNPYTISEKTPGAYTFCPKAIPAKNAGDKEKFIFVLKAEKEGFDPTNFSFDIELTAEDMVKSPLDSSNFYQIKNLFLCEHSEEE
stoichiometry N: 2
